# From IntAct's records for PubMed 11283256
# B1: Serine/threonine-protein kinase MRCK alpha (Homo sapiens), Q5VT25 (parent)
# chain: MSGEVRLRQLEQFILDGPAQTNGQCFSVETLLDILICLYDECNNSPLRREKNILEYLEWAKPFTSKVKQMRLHREDFEILKVIGRGAFGEVAVVKLKNADKVFAMKILNKWEMLKRAETACFREERDVLVNGDNKWITTLHYAFQDDNNLYLVMDYYVGGDLLTLLSKFEDRLPEDMARFYLAEMVIAIDSVHQLHYVHRDIKPDNILMDMNGHIRLADFGSCLKLMEDGTVQSSVAVGTPDYISPEILQAMEDGKGRYGPECDWWSLGVCMYEMLYGETPFYAESLVETYGKIMNHKERFQFPAQVTDVSENAKDLIRRLICSREHRLGQNGIEDFKKHPFFSGIDWDNIRNCEAPYIPEVSSPTDTSNFDVDDDCLKNSETMPPPTHTAFSGHHLPFVGFTYTSSCVLSDRSCLRVTAGPTSLDLDVNVQRTLDNNLATEAYERRIKRLEQEKLELSRKLQESTQTVQALQYSTVDGPLTASKDLEIKNLKEEIEKLRKQVTESSHLEQQLEEANAVRQELDDAFRQIKAYEKQIKTLQQEREDLNKELVQASERLKNQSKELKDAHCQRKLAMQEFMEINERLTELHTQKQKLARHVRDKEEEVDLVMQKVESLRQELRRTERAKKELEVHTEALAAEASKDRKLREQSEHYSKQLENELEGLKQKQISYSPGVCSIEHQQEITKLKTDLEKKSIFYEEELSKREGIHANEIKNLKKELHDSEGQQLALNKEIMILKDKLEKTRRESQSEREEFESEFKQQYEREKVLLTEENKKLTSELDKLTTLYENLSIHNQQLEEEVKDLADKKESVAHWEAQITEIIQWVSDEKDARGYLQALASKMTEELEALRNSSLGTRATDMPWKMRRFAKLDMSARLELQSALDAEIRAKQAIQEELNKVKASNIITECKLKDSEKKNLELLSEIEQLIKDTEELRSEKGIEHQDSQHSFLAFLNTPTDALDQFERSPSCTPASKGRRTVDSTPLSVHTPTLRKKGCPGSTGFPPKRKTHQFFVKSFTTPTKCHQCTSLMVGLIRQGCSCEVCGFSCHITCVNKAPTTCPVPPEQTKGPLGIDPQKGIGTAYEGHVRIPKPAGVKKGWQRALAIVCDFKLFLYDIAEGKASQPSVVISQVIDMRDEEFSVSSVLASDVIHASRKDIPCIFRVTASQLSASNNKCSILMLADTENEKNKWVGVLSELHKILKKNKFRDRSVYVPKEAYDSTLPLIKTTQAAAIIDHERIALGNEEGLFVVHVTKDEIIRVGDNKKIHQIELIPNDQLVAVISGRNRHVRLFPMSALDGRETDFYKLSETKGCQTVTSGKVRHGALTCLCVAMKRQVLCYELFQSKTRHRKFKEIQVPYNVQWMAIFSEQLCVGFQSGFLRYPLNGEGNPYSMLHSNDHTLSFIAHQPMDAICAVEISSKEYLLCFNSIGIYTDCQGRRSRQQELMWPANPSSCCYNAPYLSVYSENAVDIFDVNSMEWIQTLPLKKVRPLNNEGSLNLLGLETIRLIYFKNKMAEGDELVVPETSDNSRKQMVRNINNKRRYSFRVPEEERMQQRREMLRDPEMRNKLISNPTNFNHIAHMGPGDGIQILKDLPMNPRPQESRTVFSGSVSIPSITKSRPEPGRSMSASSGLSARSSAQNGSALKREFSGGSYSAKRQPMPSPSEGSLSSGGMDQGSDAPARDFDGEDSDSPRHSTASNSSNLSSPPSPASPRKTKSLSLESTDRGSWDP
# partner: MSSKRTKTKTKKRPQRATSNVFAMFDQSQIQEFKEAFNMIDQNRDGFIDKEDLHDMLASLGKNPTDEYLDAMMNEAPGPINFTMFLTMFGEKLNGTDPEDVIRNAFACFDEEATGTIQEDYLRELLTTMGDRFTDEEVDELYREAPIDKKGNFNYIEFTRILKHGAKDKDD
# Variants of: B1
# Conditions: with ml12a_human MYL12A
row,Variant,effect of a mutation on the interaction
1,T403A,decreasing interaction
2,T240A,decreasing interaction
3,S234A,decreasing interaction
4,K106A,decreasing interaction
